In assay [1] the target is T1, adiponectin receptor type 1 (AdipoR1) (human (endogenous in SH-SY5Y)) (UniProt Q96A54).
T1 sequence: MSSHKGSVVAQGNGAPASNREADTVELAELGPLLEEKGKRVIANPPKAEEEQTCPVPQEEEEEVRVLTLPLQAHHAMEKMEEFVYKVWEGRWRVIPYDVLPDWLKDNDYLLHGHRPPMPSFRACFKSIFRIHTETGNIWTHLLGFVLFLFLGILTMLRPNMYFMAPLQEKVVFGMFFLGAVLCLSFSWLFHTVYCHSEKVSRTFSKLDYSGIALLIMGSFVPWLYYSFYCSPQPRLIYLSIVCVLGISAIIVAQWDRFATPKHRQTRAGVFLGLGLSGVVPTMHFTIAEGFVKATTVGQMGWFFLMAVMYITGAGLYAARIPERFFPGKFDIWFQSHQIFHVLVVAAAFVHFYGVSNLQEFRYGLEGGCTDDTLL

The target in assay [2] is T2, adiponectin receptor type 2 (AdipoR2) (human (endogenous in SH-SY5Y)) (UniProt Q86V24).
T2 sequence: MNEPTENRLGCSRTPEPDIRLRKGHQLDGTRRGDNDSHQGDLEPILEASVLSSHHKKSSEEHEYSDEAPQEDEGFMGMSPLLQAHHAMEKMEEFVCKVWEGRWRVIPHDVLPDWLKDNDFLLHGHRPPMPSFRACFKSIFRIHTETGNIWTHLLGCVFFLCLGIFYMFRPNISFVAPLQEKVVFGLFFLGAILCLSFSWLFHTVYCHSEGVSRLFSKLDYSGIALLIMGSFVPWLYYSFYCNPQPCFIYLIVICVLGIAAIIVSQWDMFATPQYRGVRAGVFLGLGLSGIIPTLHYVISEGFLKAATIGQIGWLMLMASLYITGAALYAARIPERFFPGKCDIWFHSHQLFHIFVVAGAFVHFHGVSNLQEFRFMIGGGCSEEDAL

As to “Mouse recombinant adiponectin (from UniProt Q60994 18-247) (ligand)”, the cytotoxicity (LDH release, fold of untreated) of Sw-APP transfected SH-SY5Y cells under H2O2 (200-800 µM), with adiponectin 10 µg/ml for 2 hours beforehand; most marked at 400 µM H2O2 (fold cytotoxicity) in assay [1] and in assay [2] was 2.7 each time.

(Values after article PMC3531475.)
